Data on 3 proteins can be found in PMC10318527, “Utilization of dietary mixed-linkage β-glucans by the Firmicute Blautia producta” (The Journal of Biological Chemistry, 2023).

Substrate in data set [1]: OC[C@H]1O[C@@H](O[C@@H]2[C@@H](O)[C@H](O[C@H]3[C@H](O)[C@@H](CO)OC(O)[C@@H]3O)O[C@H](CO)[C@H]2O)[C@H](O)[C@@H](O)[C@@H]1O
The data set can be described thus: purified protein, by the assay type. It is filed as biochemical, Blautia producta ATCC 27340. To be noted: other: PAHBAH assay, 100 mM HEPES pH 6.5, 37 °C.

Substrate in data set [2]: OC[C@H]1O[C@@H](O[C@H]2[C@H](O)[C@@H](O)[C@H](O[C@H]3[C@H](O)[C@@H](O)[C@H](O[C@H]4[C@H](O)[C@@H](CO)OC(O)[C@@H]4O)O[C@@H]3CO)O[C@@H]2CO)[C@H](O)[C@@H](O)[C@@H]1O
The experiment in a line: purified protein, by the assay type. It is filed as biochemical, Blautia producta ATCC 27340. The following applies: other: PAHBAH assay, 100 mM HEPES pH 6.5, 37 °C.

Substrate in data set [3]: OC[C@H]1O[C@@H](O[C@H]2[C@H](O)[C@@H](O)[C@H](O[C@H]3[C@H](O)[C@@H](CO)OC(O)[C@@H]3O)O[C@@H]2CO)[C@H](O)[C@@H](O)[C@@H]1O
The data set can be described thus: purified protein, by the assay type. It is filed as biochemical, Blautia producta ATCC 27340. The following applies: other: PAHBAH assay, 100 mM HEPES pH 6.5, 37 °C.

Substrate in data set [4]: OC[C@H]1O[C@@H](O[C@H]2[C@H](O)[C@@H](O)[C@H](O[C@H]3[C@H](O)[C@@H](O)[C@H](O[C@H]4[C@H](O)[C@@H](CO)OC(O)[C@@H]4O)O[C@@H]3CO)O[C@@H]2CO)[C@H](O)[C@@H](O)[C@@H]1O
The data set can be described thus: Phosphorolysis kinetics of BpGH94MLG (PAHBAH assay). It is filed as biochemical, Blautia producta ATCC 27340. To be noted: other: phosphorolytic reaction, pH 6.5, 37.0 °C. Here is the method:
(§1) TLC was used for analyzing enzymatic actions. […] Kinetics parameters for BpGH94MLG were determined with G4G3G, G4G4G3G and cellotriose, following a p-hydroxybenzoic acid hydrazide (PAHBAH) reducing sugar assay ([69]).

Substrate in data set [5]: OC[C@H]1O[C@@H](O[C@H]2[C@H](O)[C@@H](O)[C@H](O[C@H]3[C@H](O)[C@@H](O)C(O)O[C@@H]3CO)O[C@@H]2CO)[C@H](O)[C@@H](O)[C@@H]1O
The data set is described as above. The class given is biochemical, Blautia producta ATCC 27340. The following applies: other: phosphorolytic reaction, pH 6.5, 37.0 °C. Here is the method: as §1

Substrate in data set [6]: OC[C@H]1O[C@@H](O[C@H]2[C@H](O)[C@@H](O)[C@H](O[C@H]3[C@H](O)[C@@H](CO)OC(O)[C@@H]3O)O[C@@H]2CO)[C@H](O)[C@@H](O)[C@@H]1O
The data set is described as above. It is filed as biochemical, Blautia producta ATCC 27340. To be noted: other: phosphorolytic reaction, pH 6.5, 37.0 °C. Here is the method: as §1

Substrate in data set [7]: O=C[C@H](O)[C@@H](O)[C@H](O[C@@H]1O[C@H](CO)[C@@H](O)[C@H](O)[C@H]1O)[C@H](O)CO
The data set can be described thus: purified protein, by the assay type. The following applies: other: PAHBAH assay, 100 mM HEPES pH 6.5, 37 °C.

Substrate in data set [8]: OC[C@H]1O[C@@H](O[C@@H]2[C@@H](O)[C@H](O[C@H]3[C@H](O)[C@@H](CO)OC(O)[C@@H]3O)O[C@H](CO)[C@H]2O)[C@H](O)[C@@H](O)[C@@H]1O
The experiment in a line: purified protein, by the assay type. To be noted: other: PAHBAH assay, 100 mM HEPES pH 6.5, 37 °C.

Substrate in data set [9]: OC[C@H]1O[C@@H](O[C@H]2[C@H](O)[C@@H](O)[C@H](O[C@H]3[C@H](O)[C@@H](O)[C@H](O[C@H]4[C@H](O)[C@@H](CO)OC(O)[C@@H]4O)O[C@@H]3CO)O[C@@H]2CO)[C@H](O)[C@@H](O)[C@@H]1O
The experiment in a line: purified protein, by the assay type. To be noted: other: PAHBAH assay, 100 mM HEPES pH 6.5, 37 °C.

Substrate in data set [10]: OC[C@H]1O[C@@H](O[C@H]2[C@H](O)[C@@H](O)[C@H](O[C@H]3[C@H](O)[C@@H](O)C(O)O[C@@H]3CO)O[C@@H]2CO)[C@H](O)[C@@H](O)[C@@H]1O
The data set can be described thus: purified protein, by the assay type. To be noted: other: PAHBAH assay, 100 mM HEPES pH 6.5, 37 °C.

Substrate in data set [11]: OC[C@H]1O[C@@H](O[C@H]2[C@H](O)[C@@H](O)[C@H](O[C@H]3[C@H](O)[C@@H](O)[C@H](O[C@H]4[C@H](O)[C@@H](O)C(O)O[C@@H]4CO)O[C@@H]3CO)O[C@@H]2CO)[C@H](O)[C@@H](O)[C@@H]1O
The data set can be described thus: purified protein, by the assay type. The following applies: other: PAHBAH assay, 100 mM HEPES pH 6.5, 37 °C.

Substrate in data set [12]: OC[C@H]1O[C@@H](O[C@H]2[C@H](O)[C@@H](O)[C@H](O[C@H]3[C@H](O)[C@@H](CO)OC(O)[C@@H]3O)O[C@@H]2CO)[C@H](O)[C@@H](O)[C@@H]1O
The experiment in a line: purified protein, by the assay type. The following applies: other: PAHBAH assay, 100 mM HEPES pH 6.5, 37 °C.

Substrate in data set [13]: OC[C@H]1O[C@@H](O[C@H]2[C@H](O)[C@@H](CO)OC(O)[C@@H]2O)[C@H](O)[C@@H](O)[C@@H]1O
The experiment in a line: purified protein, by the assay type. The following applies: other: PAHBAH assay, 100 mM HEPES pH 6.5, 37 °C.

B1: BpGH3-AR8MLG (Blautia producta ATCC 27340 = DSM 2950) (protein)
chain: MKLKNKTFTGTTSNEVTARETENRKLARLAAAEGFVLLKNQDHILPLKKGIKLGLYGAGAVKTIKGGTGSGDVNERECVNICQGLENAGYEITSSAWLEAYASLYEETRLKWRDEILGKLEAYDNNFFEAYSTTPFFMPCGNPVDVDKASDDGADTAIYVLSRIAGENADRHDTEGDYYISAEEKALIAQLSKAYDSLVLVINTGGLVDLAFVQEFDNIKAVLQFVQAGQEGGSAFADVVSGKVTPSGKLADTWAFDYKDYPNSETFSFKNGDVNTEKYQEGIYVGYRYFDTFDVPVLYPFGFGLSYTDFMICTEEIKTVNTESGKPEIAVTVKVTNTGDTYCGKEVVQIYVSCPQGKLAKEYRRLAGFAKTEELKPGESCRITITFPVYQLASFHEENAAWVLEEGTYGVWTGNSIQGAKLAGSLCVDKDAILVQCEHICPVKEELTELTPDSSRMKEKEAAWLEKAAGLPSVHIDAEKITKETVVYTELPERFTGRAGEIVESLSVEQLIQMSAGDPGKGQDAVLGSAGITVPGAAAETSSAASGEPWNLPSIALADGPAGLRLNQKYQVVDGEIVRENFMKSIEKGFFAEPSPEVGTAYYQFCTAIPVGTLLAQTWNAELVKEVGEMIGKEMELFQVTLWLAPGMNIHRNPLCGRNFEYYSEDPLLSGIMASAMTLGVQKVPGCGTTIKHFACNNQEDNRMGSDSVLSERALREIYLKGFEIAVKNSQPMSIMTSYNMINGVHAANCYDICTRAARDEWEFAGAVMTDWTTTFASPRGECTAAGCMRAGNDMVMPGIPKDHENIRRELEEGTLDIRELKRCICNTVNLILQSNRYENAVSYLEQFEGLDAYLSVERSN
What is called Km is the concentration of substrate that gives half-maximal velocity. Usually kcat stands for the number of substrate molecules converted per active site and unit of time at saturation. A word on the kcat/Km: it is the turnover number divided by the Michaelis constant. Regarding B1, in [1], the Michaelis constant (Km) was 230 ± 50 µM, the kcat worked out at 12 ± 0.2 s⁻¹ and the catalytic efficiency (kcat/Km) came to 52000 M⁻¹ s⁻¹. Moreover, in data set [2], the Michaelis constant (Km) was 300 ± 40 µM, the kcat came out at 20 ± 0.3 s⁻¹ and the kcat/Km came out at 67000 M⁻¹ s⁻¹. For the same protein, in data set [3], the kcat stood at 17 ± 0.3 s⁻¹ and the kcat/Km was found to be 71000 M⁻¹ s⁻¹.

B2: BpGH94MLG (Blautia producta) (protein)
chain: MKYGYFDEEKKEYVITRPDTPAPWVNYLGSPEYGAIISNNAGGYSFEKSGANGRILRYVFNNFDQPGRYIYIRDQENKDFWSASWQPVGKPQDVYQCECRHGTAYTNMRAEYSEISSEVLYYVPLGAAYEVWRLRLTNNSDRPRNLCVTGYAEFTNNSNYEQDQVNLQYSQFITQTAFRGNRICQMIHANLDQLEPGKDVDDKQVTERFFGLAGNPVTSWCGDKDGFLGRYHGYDAPKGVIEGKLSCLPNYNGNGCGALSSDFVLKPGEAKEVVFVLGMKKDAEVEEILKRYEIPETVCREEFHKLVKYWHGYLSHFQVKTPSREFNTMVNTWNAYNCFMTFIWSRAASFIYCGLRNGYGYRDTVQDIQGIIHLAPDMALEKIRFMLSAQADNGGGLPLVKFTHNPGHEDTPDDASYVKETGHPAYRADDALWLFPTVYKYIAETGNMDFIDEVIPFANRGKATVYEHLKRAVKFSMDHLGRHGMPAGLYADWNDCLRLGKDGESTFVAMQFYYAMTILKKFAKYKKDVEYMEFLCERQKKLEELIQKFCWDEGRFIRGFTENGEIIGKSTDPEANMWLNPQSWAVISGVANEEQADRVLDVVEKRLNTEYGLVLMDPPYHAHAFDGALAVIYNPGTKENAGIFSQSQGWIILAEALRGHGERAFTYFMENAPAAQNDRADIRKLEPYCYGQFTEGKDSPNFGRSHVHWLTGTASTIMVGCVEGILGIRPDFYGIRLAPAIPKEWEEYEVEKDFRGCHLHIKVKNPGHVESGCEKLVVNGNVVTGSYIPADLLTEQTDIELFIS
B2: the Km in data set [4] came out at 21 ± 2 µM; in data set [5] it was 28 ± 4 µM; in [6], 52 ± 5 µM. Further, the kcat in data set [4] was 1.21 ± 0.014 s⁻¹; in [5], 0.67 ± 0.021 s⁻¹; in [6], 1.86 ± 0.022 s⁻¹. The kcat/Km in data set [4] worked out at 57600 M⁻¹ s⁻¹; in data set [5], 23900 M⁻¹ s⁻¹; in data set [6], 35700 M⁻¹ s⁻¹.

B3: BpGH3-X62MLG (Blautia producta ATCC 27340 = DSM 2950) (protein)
chain: MENKYVIDWDKYAALARRAAAEGAVLLKNDNQALPLKKETISVFGRIQYHYYKSGTGSGGLVNAKYVIGIMDALQEEKDLTLDEELAAVYRSWIMEHPFDQGSGWAQEPWSQEEMPLDEKMVEEAAARSDTAVIVIGRTAGEDRDASAEKGSYLLTDLEEDMLEKVCRLFKKSIVVLNVGNIIDMKWVEKYNPSAVLYTWQGGQEGGHSAADVLTGRVNPCGKLADTIARDISDYPSTENFGGGDFDIYAEDIYVGYRYFETFARDKVLYPFGFGLSYTSFRTECGPIKRLDGETSVCVKVTNAGSCAGKEVVQMYVEPPQGKLGKPSRNLAAFAKTKCLQPGESQELVLKVTDYYISSYDDSGAAGFKSCYVLENGSYGIYVGTDVRGAEAAGSFYIPETIATSVCTEAAGPVRQFKRMRAKEGGALAWEEAPLRTHKMQERIHKEILPDITYTGNKGFTLGEVFDRDISLNEFLAQLSEEDLCCIVRGEGMCSPKVTPGTAAAFGGVTESLQKLGIPCGCCADGPSGIRMDCGTPAFSMPNGTCLACTFDTELSEELYEMEGAELRKNRIDTLLGPGINIHRNPLNGRNFEYFSEDPYLTGIMASAQLKGMARFGVTGTIKHFAANNQEYHRRLLDSVMSERALREIYLRGFEIAVKEGKAYSIMTTYGAINGLWTASNYDLLTTILRKEWGFEGMVMTDWWADLNDEGGQPSTDNLAAMVRSQNDVYMVTQDSLNNKDNLMESLKNGTLKRGALLRCAGNICRMLMRSPVMERTLGRMSEEEKKAGEVMAGEDKVDFDITYHKVQGSLVLDGTKIDTSKGNSVVYGILLDTFGSYKVRLKVKADSGELAQIPVSVFANGHLEGTVTINGTKGEWIEIEKTIGPLFGPHNYVRLYFAQSGMQIQTVTIELQEKMDRGF
As to B3, the Km in [7] came to 200 ± 30 µM; in data set [9], 250 ± 50 µM; in [10] it was 260 ± 30 µM; in [11], 450 ± 60 µM; in data set [12], 230 ± 40 µM. Further, the kcat in data set [7] came out at 8 ± 0.01 s⁻¹; in [8] it was 12 ± 0.2 s⁻¹; in data set [10], 15 ± 0.2 s⁻¹; in [11] it was 19 ± 0.3 s⁻¹; in data set [12], 17 ± 0.3 s⁻¹; in data set [13], 12 ± 0.2 s⁻¹. Also, the kcat/Km in data set [7] is 38000 M⁻¹ s⁻¹; in [8], 51000 M⁻¹ s⁻¹; in [10], 59000 M⁻¹ s⁻¹; in [11], 43000 M⁻¹ s⁻¹; in data set [12], 73000 M⁻¹ s⁻¹; in data set [13] it was 48000 M⁻¹ s⁻¹.
